Values quoted from earlier work, collected in paper PMC5347372.

Biological target: alpha-factor (Saccharomyces cerevisiae) (UniProt P01149)

**Q.** With Ste2 (from UniProt D6VTK4) as the substance, how does the Kd read?
**A.** Its Kd is 7 nM.
